# Test results: patent US20040141918
# Tested on: Int6 protein expressed in bacteria using the QUIA Express Type 4 vector, purified
# Sequence (chain, as listed by the source): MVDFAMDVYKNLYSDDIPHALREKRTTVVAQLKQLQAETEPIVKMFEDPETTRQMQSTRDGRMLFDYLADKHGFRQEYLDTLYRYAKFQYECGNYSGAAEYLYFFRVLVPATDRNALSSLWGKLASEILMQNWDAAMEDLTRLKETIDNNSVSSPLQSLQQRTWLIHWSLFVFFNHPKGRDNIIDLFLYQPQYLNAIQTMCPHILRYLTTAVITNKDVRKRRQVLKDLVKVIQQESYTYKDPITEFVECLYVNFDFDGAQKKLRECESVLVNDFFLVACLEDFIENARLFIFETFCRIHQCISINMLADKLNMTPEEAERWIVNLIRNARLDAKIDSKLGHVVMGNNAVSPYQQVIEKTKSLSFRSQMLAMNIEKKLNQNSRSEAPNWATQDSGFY
substance,measurement,value
protein kinase C,phosphorylation by PKC,shown to be phosphorylated by PKC (data not shown)
